Assay in all cases: EMSA
(In general: Mobility shift assays separate free from complexed probe on a gel.)

Data set [1] deals with T1, RecQ helicase (Escherichia coli, UniProt P15043 1-609).
The target in data set [2] is T1, RecQ helicase. This is another data set of the same source.
Data set [3] has as its target T1, RecQ helicase. This is another data set of the same source.

Where two headings read alike, the source gives them in different places.

In PMC3330151 one finds binding result and Kd data, which are given here for three molecules.

In general, Kd refers to the equilibrium constant for the complex coming apart. The low end stands for higher affinity, the high end for lower affinity.

T1 sequence (P15043 whole entry): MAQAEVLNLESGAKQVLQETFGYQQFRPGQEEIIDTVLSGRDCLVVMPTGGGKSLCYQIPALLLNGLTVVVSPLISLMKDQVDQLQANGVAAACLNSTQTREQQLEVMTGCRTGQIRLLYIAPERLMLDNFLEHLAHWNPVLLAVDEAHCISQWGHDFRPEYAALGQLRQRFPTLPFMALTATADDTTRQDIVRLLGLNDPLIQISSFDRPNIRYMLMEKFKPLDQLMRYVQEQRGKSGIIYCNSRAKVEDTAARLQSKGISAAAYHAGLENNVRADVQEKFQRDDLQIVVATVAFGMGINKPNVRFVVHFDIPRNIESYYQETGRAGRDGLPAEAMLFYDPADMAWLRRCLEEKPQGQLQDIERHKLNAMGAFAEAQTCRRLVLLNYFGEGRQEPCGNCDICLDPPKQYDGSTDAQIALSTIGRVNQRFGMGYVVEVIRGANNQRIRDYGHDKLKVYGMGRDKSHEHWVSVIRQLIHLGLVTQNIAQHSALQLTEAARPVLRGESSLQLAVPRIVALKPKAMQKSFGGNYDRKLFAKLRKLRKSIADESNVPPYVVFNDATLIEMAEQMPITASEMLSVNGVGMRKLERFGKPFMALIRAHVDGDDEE

As for TTTTTT (ssDNA) [dT6], the binding result in data set [1] was “no binding”.

B1: dT52 (ssDNA)
DNA: TTTTTTTTTTTTTTTTTTTTTTTTTTTTTTTTTTTTTTTTTTTTTTTTTTTT
In the case of B1, the Kd was 0.15 ± 0.02 µM in data set [2] and 0.17 ± 0.01 µM in data set [3].

TTTTTTTTTTTTTTTTTTTTTTTTT (ssDNA) [dT25]: the Kd was 0.4 ± 0.06 µM in data set [2] and 1 ± 0.1 µM in data set [3].
